# B1: Escherichia coli LolA P65T (natural protein, UniProt P61316 22-203, looked up)
# chain: DAASDLKSRLDKVSSFHASFTQKVTDGSGAAVQEGQGDLWVKRTNLFNWHMTQPDESILVSDGKTLWFYNPFVEQATATWLKDATGNTPFMLIARNQSSDWQQYNIKQNGDDFVLTPKASNGNLKQFTINVGRDGTIHQFSAVEQDDQRSSYQLKSQQNGAVDAAKFTFTPPQGVTVDDQRK
# notes: LolA of Escherichia coli; source: E. coli BL21(DE3), purified (Ni-NTA, SEC)
# Target: the molecule itself
# Assay: SEC; affinity-purified protein alone; Superdex 200 Increase 10/300 GL, 100 uL of 10 mg/mL, 0.2 mL/min; 200 mM NaCl, 10 mM Tris HCl pH 7.5, 5% glycerol, 1 mM DTT; monomer and dimer peaks
protein,measurement,value
B1,stoichiometry N,2

# From publication doi:10.1101/2025.01.13.632879 (bioRxiv, 2025)
